Reference: the supplement of paper PMC11246515
± gives the standard deviation of the averaged measurements.

Assay: total protein half-life in vivo (active degradation + dilution); higher = more stable protein
[1] = E. coli NCM3722 delta-clpP, growth: N-lim chemostat, doubling time 6 h
[2] = wild type E. coli NCM3722, growth: N-lim chemostat, doubling time 12 h
[3] = wild type E. coli NCM3722, growth: P-lim chemostat, doubling time 12 h
[4] = E. coli NCM3722 delta-clpP delta-lon delta-hslV, growth: N-lim chemostat, doubling time 6 h
[5] = E. coli NCM3722 delta-hslV, growth: N-lim chemostat, doubling time 6 h
[6] = E. coli NCM3722 delta-lon, growth: N-lim chemostat, doubling time 6 h
[7] = E. coli NCM3722 delta-smpB, growth: N-lim chemostat, doubling time 6 h
[8] = wild type E. coli NCM3722, growth: C-lim chemostat, doubling time 3 h
[9] = wild type E. coli NCM3722, growth: C-lim chemostat, doubling time 6 h
[10] = wild type E. coli NCM3722, growth: C-lim chemostat, doubling time 12 h
[11] = wild type E. coli NCM3722, growth: N-lim chemostat, doubling time 6 h
[12] = wild type E. coli NCM3722, growth: P-lim chemostat, doubling time 6 h

Sequence | total protein half-life in vivo [1] [h] | total protein half-life in vivo [2] [h] | total protein half-life in vivo [3] [h] | total protein half-life in vivo [4] [h] | total protein half-life in vivo [5] [h] | total protein half-life in vivo [6] [h] | total protein half-life in vivo [7] [h] | total protein half-life in vivo [8] [h] | total protein half-life in vivo [9] [h] | total protein half-life in vivo [10] [h] | total protein half-life in vivo [11] [h] | total protein half-life in vivo [12] [h]
MLQIVGALILLIAGFAILRLLFRALISTASALAGLILLCLFGPALLAGYITERITRLFHIRWLAGVFLTIAGMIISFMWGLDGKHIALEAHTFDSVKFILTTALAGGLLAVPLQIKNIQQNGITPEDISKEINGYYCCFYTAFFLMACSACAPLIALQYDISPSLMWWGGLLYWLAALVTLLWAASQIQALKKLTCAISQTLEEQPVLNSKSWLTSLQNDYSLPDSLTERIWLTLISQRISRGELREFELADGNWLLNNAWYERNMAGFNEQLKENLSFTPDELKTLFRNRLNLSPEANDDFLDRCLDGGDWYPFSEGRRFVSFHHVDELRICASCGLTEVHHAPENHKPDPEWYCSSLCRETETLCQEIYERPYNSFISDATANGLILMKLPETWSTNEKMFASGGQGHGFAAERGNHIVDRVRLKNARILGDNNARNGADRLVSGTEIQTKYCSTAARSVGAAFDGQNGQYRYMGNNGPMQLEVPRDQYAGAVETMRNKIREGKVEER | 0.668 | 0.674 | 2.58 ± 0.79 |  |  |  |  |  |  |  |  | 
MLQNIRIVLVETSHTGNMGSVARAMKTMGLTNLWLVNPLVKPDSQAIALAAGASDVIGNAHIVDTLDEALAGCSLVVGTSARSRTLPWPMLDPRECGLKSVAEAANTPVALVFGRERVGLTNEELQKCHYHVAIAANPEYSSLNLAMAVQVIAYEVRMAWLATQENGEQVEHEETPYPLVDDLERFYGHLEQTLLATGFIRENHPGQVMNKLRRLFTRARPESQELNILRGILASIEQQNKGNKAE [P0AE01] | 4.013 ± 0.028 | 7.52 ± 0.47 | 10.6 ± 0.77 | 4.67 ± 0.57 | 4.18 ± 0.18 | 5.15 ± 0.92 | 4.43 ± 0.4 | 2.8 ± 0.32 | 5.41 ± 0.56 | 9.64 ± 0.46 | 4.34 ± 0.23 | 5.22 ± 0.042
MLQSNEYFSGKVKSIGFSSSSTGRASVGVMVEGEYTFSTAEPEEMTVISGALNVLLPDATDWQVYEAGSVFNVPGHSEFHLQVAEPTSYLCRYL [P0C037] | 3.8 ± 0.061 | 5.6 | 6.87 ± 0.11 | 5.23 ± 0.64 | 3.59 ± 0.28 | 4.706 ± 0.03 | 3.46 ± 0.4 | 2.75 ± 0.14 | 5.02 ± 0.079 | 9.73 ± 2.5 | 3.78 ± 0.38 | 4.25 ± 0.35
MLQVYLVRHGETQWNAERRIQGQSDSPLTAKGEQQAMQVATRAKELGITHIISSDLGRTRRTAEIIAQACGCDIIFDSRLRELNMGVLEKRHIDSLTEEEENWRRQLVNGTVDGRIPEGESMQELSDRVNAALESCRDLPQGSRPLLVSHGIALGCLVSTILGLPAWAERRLRLRNCSISRVDYQESLWLASGWVVETAGDISHLDAPALDELQR [P0A7A2] | 2.57 ± 0.17 | 3.84 ± 0.45 | 8.06 ± 1 | 4.23 ± 1.4 | 2.36 ± 0.011 | 2.852 ± 0.012 | 2.65 ± 0.051 | 2.75 ± 0.28 | 4.55 ± 0.27 | 7.06 ± 0.16 | 2.71 ± 0.11 | 4.88 ± 0.12
MLRFLNQCSQGRGAWLLMAFTALALELTALWFQHVMLLKPCVLCIYERCALFGVLGAALIGAIAPKTPLRYVAMVIWLYSAFRGVQLTYEHTMLQLYPSPFATCDFMVRFPEWLPLDKWVPQVFVASGDCAERQWDFLGLEMPQWLLGIFIAYLIVAVLVVISQPFKAKKRDLFGR [P0A6M2] | 6.09 | 9.57 |  |  |  | > 8 |  |  |  |  | 6.88 | 5.52
MLRHNVPVRRDLDQIAADNGFDFHIIDNEIYWDESRAYRFTLRQIEEQIEKPTAELHQMCLEVVDRAVKDEEILTQLAIPPLYWDVIAESWRARDPSLYGRMDFAWCGNAPVKLLEYNADTPTSLYESAYFQWLWLEDARRSGIIPRDADQYNAIQERLISRFSELYSREPFYFCCCQDTDEDRSTVLYLQDCAQQAGQESRFIYIEDLGLGVGGVLTDLDDNVIQRAFKLYPLEWMMRDDNGPLLRKRREQWVEPLWKSILSNKGLMPLLWRFFPGHPNLLASWFDGEKPQIAAGESYVRKPIYSREGGNVTIFDGKNNVVDHADGDYADEPMIYQAFQPLPRFGDSYTLIGSWIVDDEACGMGIREDNTLITKDTSRFVPHYIAG | > 8 | > 16 | > 16 | > 8 | > 8 | > 8 |  |  |  | 8.91 | > 8 | > 8
MLRIADKTFDSHLFTGTGKFASSQLMVEAIRASGSQLVTLAMKRVDLRQHNDAILEPLIAAGVTLLPNTSGAKTAEEAIFAAHLAREALGTNWLKLEIHPDARWLLPDPIETLKAAETLVQQGFVVLPYCGADPVLCKRLEEVGCAAVMPLGAPIGSNQGLETRAMLEIIIQQATVPVVVDAGIGVPSHAAQALEMGADAVLVNTAIAVADDPVNMAKAFRLAVEAGLLARQSGPGSRSYFAHATSPLTGFLEASA | 1.09 ± 0.22 | 1.067 ± 0.0049 | 3.07 ± 0.59 | 2.21 ± 0.21 | 0.8075 ± 0.0064 | 1.093 ± 0.0074 | 0.844 ± 0.015 | 1.59 ± 0.079 | 1.61 ± 0.17 | 1.81 ± 0.88 | 0.928 ± 0.09 | 2.01 ± 0.17
MLRLLEEKIATPLGPLWVICDEQFRLRAVEWEEYSERMVQLLDIHYRKEGYERISATNPGGLSDKLREYFAGNLSIIDTLPTATGGTPFQREVWKTLRTIPCGQVMHYGQLAEQLGRPGAARAVGAANGSNPISIVVPCHRVIGRNGTMTGYAGGVQRKEWLLRHEGYLLL [P0AFH0] | 4.8 ± 0.28 | 7.793 ± 0.026 | 8.9 ± 0.66 | 5.81 ± 0.46 | 6.05 ± 1.3 |  | 3.86 ± 0.21 | 2.61 | 5.29 ± 0.24 | 10.4 ± 0.61 | 4.55 ± 0.71 | 5.07 ± 0.087
MLRMTPLASAIVALLLGIEAYAAEETFDTHFMIGGMKDQQVANIRLDDNQPLPGQYDIDIYVNKQWRGKYEIIVKDNPQETCLSREVIKRLGINSDNFASGKQCLTFEQLVQGGSYTWDIGVFRLDFSVPQAWVEELESGYVPPENWERGINAFYTSYYLSQYYSDYKASGNNKSTYVRFNSGLNLLGWQLHSDASFSKTNNNPGVWKSNTLYLERGFAQLLGTLRVGDMYTSSDIFDSVRFRGVRLFRDMQMLPNSKQNFTPRVQGIAQSNALVTIEQNGFVVYQKEVPPGPFAITDLQLAGGGADLDVSVKEADGSVTTYLVPYAAVPNMLQPGVSKYDLAAGRSHIEGASKQSDFVQAGYQYGFNNLLTLYGGSMVANNYYAFTLGAGWNTRIGAISVDATKSHSKQDNGDVFDGQSYQIAYNKFVSQTSTRFGLAAWRYSSRDYRTFNDHVWANNKDNYRRDENDVYDIADYYQNDFGRKNSFSANMSQSLPEGWGSVSLSTLWRDYWGRSGSSKDYQLSYSNNLRRISYTLAASQAYDENHHEEKRFNIFISIPFDWGDDVSTPRRQIYMSNSTTFDDQGFASNNTGLSGTVGSRDQFNYGVNLSHQHQGNETTAGANLTWNAPVATVNGSYSQSSTYRQAGASVSGGIVAWSGGVNLANRLSETFAVMNAPGIKDAYVNGQKYRTTNRNGVVIYDGMTPYRENHLMLDVSQSDSEAELRGNRKIAAPYRGAVVLVNFDTDQRKPWFIKALRADGQSLTFGYEVNDIHGHNIGVVGQGSQLFIRTNEVPPSVNVAIDKQQGLSCTITFGKEIDESRNYICQ |  |  | 9.63 |  |  |  |  |  |  |  |  | 
MLRPVETPTREIKKLDGLWAFSLDRENCGIDQRWWESALQESRAIAVPGSFNDQFADADIRNYAGNVWYQREVFIPKGWAGQRIVLRFDAVTHYGKVWVNNQEVMEHQGGYTPFEADVTPYVIAGKSVRITVCVNNELNWQTIPPGMVITDENGKKKQSYFHDFFNYAGIHRSVMLYTTPNTWVDDITVVTHVAQDCNHASVDWQVVANGDVSVELRDADQQVVATGQGTSGTLQVVNPHLWQPGEGYLYELCVTAKSQTECDIYPLRVGIRSVAVKGEQFLINHKPFYFTGFGRHEDADLRGKGFDNVLMVHDHALMDWIGANSYRTSHYPYAEEMLDWADEHGIVVIDETAAVGFNLSLGIGFEAGNKPKELYSEEAVNGETQQAHLQAIKELIARDKNHPSVVMWSIANEPDTRPQGAREYFAPLAEATRKLDPTRPITCVNVMFCDAHTDTISDLFDVLCLNRYYGWYVQSGDLETAEKVLEKELLAWQEKLHQPIIITEYGVDTLAGLHSMYTDMWSEEYQCAWLDMYHRVFDRVSAVVGEQVWNFADFATSQGILRVGGNKKGIFTRDRKPKSAAFLLQKRWTGMNFGEKPQQGGKQ |  |  |  |  |  |  |  | 2.85 ± 0.27 | 5.46 ± 0.52 | 8.91 ± 1.3 |  | 
